Experimental findings from paper PMC6582607, “Development of a novel ssDNA aptamer targeting neutrophil gelatinase-associated lipocalin and its application in clinical trials” are described below.

Sequences and labels used below:
B1: NA36 (ssDNA)
DNA: AGCAGCACAGAGGTCAGATGCCCATATGCTACTTTGCACACATCCTGGATAGGCTCCTATGCGTGCTACCGTGAA
B2: NA53 (ssDNA)
DNA: AGCAGCACAGAGGTCAGATGGCGCTGGATAGCAAGATCACGTTATCATCGTAAACCCTATGCGTGCTACCGTGAA
B3: NA42 (ssDNA)
DNA: AGCAGCACAGAGGTCAGATGCCGTGCGGATGTACAGGGACTTGGATAGTTTCTGACCTATGCGTGCTACCGTGAA
B4: NA37 (ssDNA)
DNA: B1 DNA
B5: NA40 (ssDNA)
DNA: B2 DNA
B6: NA27 (ssDNA)
DNA: B2 DNA with A47G
B7: NA39 (ssDNA)
DNA: B2 DNA

Positions count from the first letter of the chain named.

For one series, the target named is T1, NGAL (neutrophil gelatinase-associated lipocalin) (UniProt P80188 21-198). The experiment in a line: magnetic bead pull-down, qPCR; binding buffer (composition and pH not in material), room temperature, 1 h, NGAL-coated magnetic beads (about 0.20 ug NGAL per uL beads).
T1 sequence (P80188 21-198): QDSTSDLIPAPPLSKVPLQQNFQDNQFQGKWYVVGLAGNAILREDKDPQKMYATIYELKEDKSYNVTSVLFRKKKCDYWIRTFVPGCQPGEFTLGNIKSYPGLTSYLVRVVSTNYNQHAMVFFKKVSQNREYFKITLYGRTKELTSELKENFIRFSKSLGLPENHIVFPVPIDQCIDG
As for B1, binding was put at a Kd of 43.6 nM. That is a double-digit nanomolar value. Same read-out and setting: next, B2: 32.5 nM; B3: 66.5 nM.

A further series deals with T1, NGAL (neutrophil gelatinase-associated …). The experiment in a line: magnetic bead pull-down, qPCR; 20 nM; binding buffer (composition and pH not in material), room temperature, 1 h, NGAL-coated magnetic beads (about 0.20 ug NGAL per uL beads).
For the molecule B4, the binding signal was > 4 dCt (cycles vs bare beads). Turning to B5, the binding signal was > 4 dCt (cycles vs bare beads). Turning to B6, the binding signal is > 4 dCt (cycles vs bare beads). Still for that read-out and setting: next, B7: > 4 dCt (cycles vs bare beads).
